# Results as given in paper PMC11306256.
# B1: GST-tagged recombinant Xenopus APE1, wild type [Xenopus laevis] / itself (parent)
# chain: MPKRGKKEEVCAAEPQEDGNEPEVKKGKKGAGKAAKEPEPVVLYEDAPDNVTSADGKKYTLKISSWNVDGIRAWIKKQGLNWVREEDPHIMCLQEIKCAEKLLPPDVKDMPEYPHKYWACPDEKEGYSGVAMLCKDKPLNVTYGIGIEEHDKEGRVITAEFDSFFVIAAYIPNSSRGLVRLDYRQRWDVDFRAYLKGLDSKKPLILCGDLNVAHQEIDLKNPKTNKKTPGFTPQERQGFGELLAEGYLDSFRELYPDKPSAYTFWTYMMNARAKNVGWRLDYFVLSKALRPALCDCKIRSKVMGSDHCPITLLMAI
# Variants of: B1
# Test: sucrose density gradient sedimentation, quantified immunoblot (self-association / oligomerization)
# Details: with itself; fraction #3 (low-mass peak, co-sediments with 75kD Conalbumin); n = 3; parent: 17; read off a plot
row,percent of protein in gradient fraction,Variant
1,23%,chain 1 K25A K26A K33A

# Same assay, conditions: with itself; fraction #7 (high-mass oligomer peak of WT); n = 3; parent: 16; read off a plot
row,percent of protein in gradient fraction,Variant
1,6%,chain 1 K25A K26A K33A
